From patent publication US7629437 (University of California, dated 2009)
*: point of attachment. CH2Cl = ClC*

What was measured:
Experiment in all cases: cell-based or functional assay
[1] = molecular target: Recombinant human βII tryptase (human, singly N-glycosylated (non- and single-glycosylation forms observed))
Human plasmin = Human plasmin (human, UniProt P00747 97-810, limits assumed)
[2] = molecular target: urokinase plasminogen activator (UniProt P00749 21-431, limits assumed)
[3] = molecular target: Recombinant human βI tryptase (human, UniProt Q15661 31-275, N-glycosylated (non-, single-, double- and hyper-glycosylation forms observed))
Factor Xa = molecular target: Factor Xa
Human thrombin = Human thrombin (human, UniProt P00734 328-622)
[4] = molecular target: tissue-type plasminogen activator (UniProt P00750 36-562, limits assumed)
tissue-type plasminogen activator, sequence (P00750 36-562 limits assumed): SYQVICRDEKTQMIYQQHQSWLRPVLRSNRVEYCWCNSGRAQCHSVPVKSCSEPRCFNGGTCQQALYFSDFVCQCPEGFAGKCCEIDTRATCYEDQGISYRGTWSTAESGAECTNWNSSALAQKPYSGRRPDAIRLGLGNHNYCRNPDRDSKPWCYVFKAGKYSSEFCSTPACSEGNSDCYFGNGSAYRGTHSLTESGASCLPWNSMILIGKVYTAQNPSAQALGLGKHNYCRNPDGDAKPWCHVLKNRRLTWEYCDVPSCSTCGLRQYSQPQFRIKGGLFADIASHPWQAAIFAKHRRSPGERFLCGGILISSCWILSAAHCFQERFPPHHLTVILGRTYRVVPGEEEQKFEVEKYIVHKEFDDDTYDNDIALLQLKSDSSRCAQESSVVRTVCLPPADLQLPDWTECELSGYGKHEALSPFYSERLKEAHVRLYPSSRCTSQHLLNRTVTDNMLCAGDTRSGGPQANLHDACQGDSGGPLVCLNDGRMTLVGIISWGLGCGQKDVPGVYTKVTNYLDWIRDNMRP

Recombinant human βI tryptase, sequence (Q15661 31-275): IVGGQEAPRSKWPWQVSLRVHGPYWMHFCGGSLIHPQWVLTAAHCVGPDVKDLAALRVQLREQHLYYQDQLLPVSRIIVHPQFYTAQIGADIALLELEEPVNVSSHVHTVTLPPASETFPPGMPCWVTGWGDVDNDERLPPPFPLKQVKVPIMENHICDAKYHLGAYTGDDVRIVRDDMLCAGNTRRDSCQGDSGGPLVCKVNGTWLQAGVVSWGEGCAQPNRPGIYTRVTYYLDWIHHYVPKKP
Recombinant human βII tryptase (human, singly N-glycosylated (non- and single-glycosylation forms observed)), sequence (chain, as listed by the source): as the sequence (Q15661 31-275) above, with N102K counted along it
Human plasmin, sequence (P00747 97-810 limits assumed): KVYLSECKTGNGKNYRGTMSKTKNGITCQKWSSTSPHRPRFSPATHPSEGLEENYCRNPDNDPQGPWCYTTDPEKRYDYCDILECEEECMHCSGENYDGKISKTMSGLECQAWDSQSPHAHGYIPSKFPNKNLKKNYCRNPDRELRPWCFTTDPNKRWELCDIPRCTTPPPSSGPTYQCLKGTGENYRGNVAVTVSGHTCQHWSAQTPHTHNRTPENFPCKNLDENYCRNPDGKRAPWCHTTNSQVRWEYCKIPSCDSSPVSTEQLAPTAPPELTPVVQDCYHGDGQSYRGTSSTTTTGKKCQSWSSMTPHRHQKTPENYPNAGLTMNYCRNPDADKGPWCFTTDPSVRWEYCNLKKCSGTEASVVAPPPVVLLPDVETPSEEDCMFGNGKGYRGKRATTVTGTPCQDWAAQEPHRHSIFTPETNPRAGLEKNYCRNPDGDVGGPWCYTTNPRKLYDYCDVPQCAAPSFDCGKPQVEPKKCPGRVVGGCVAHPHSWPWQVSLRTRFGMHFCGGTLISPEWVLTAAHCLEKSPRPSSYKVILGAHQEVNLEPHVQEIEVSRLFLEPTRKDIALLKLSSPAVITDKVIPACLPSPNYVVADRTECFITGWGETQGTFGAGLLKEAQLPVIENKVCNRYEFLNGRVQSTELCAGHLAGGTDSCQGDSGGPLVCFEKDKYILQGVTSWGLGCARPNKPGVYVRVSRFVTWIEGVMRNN

Percent Inhibition, 10 µM Ac-PRNK-cmk [1]: 95%
Percent Inhibition, 100 µM Ac-PRNK-cmk [1]: 100%
Percent Inhibition, 10 µM Ac-PRNK-cmk (Human plasmin): 0%
Percent Inhibition, 100 µM Ac-PRNK-cmk (Human plasmin): 63%
Percent Inhibition, 10 µM Ac-PRNK-cmk [2]: 0%
Percent Inhibition, 100 µM Ac-PRNK-cmk [2]: 34%
Percent Inhibition, 10 µM Ac-PRNK-cmk [3]: 95%
Percent Inhibition, 100 µM Ac-PRNK-cmk [3]: 100%
Percent Inhibition, 10 µM Ac-PRNK-cmk (Factor Xa): 0%
Percent Inhibition, 100 µM Ac-PRNK-cmk (Factor Xa): 0%
Percent Inhibition, 10 µM Ac-PRNK-cmk (Human thrombin): 0%
Percent Inhibition, 100 µM Ac-PRNK-cmk (Human thrombin): 0%
Percent Inhibition, 10 µM Ac-PRNK-cmk [4]: 0%
Percent Inhibition, 100 µM Ac-PRNK-cmk [4]: 0%
B1: Ac-PRNK-cmk (peptide)
peptide: Ac-PRNK-CH2Cl
SMILES: CC(=O)N1CCC[C@H]1C(=O)N[C@@H](CCCNC(=N)N)C(=O)N[C@@H](CC(N)=O)C(=O)N[C@@H](CCCCN)C(=O)CCl
